Assay results published in publication PMC11009412, “Pathogenic mutations of human phosphorylation sites affect protein–protein interactions” (Nature Communications, 2024).

B1: GTF2E2 (protein, UniProt P29084 1-291, looked up)
Transcription initiation …: MDPSLLRERELFKKRALSTPVVEKRSASSESSSSSSKKKKTKVEHGGSSGSKQNSDHSNGSFNLKALSGSSGYKFGVLAKIVNYMKTRHQRGDTHPLTLDEILDETQHLDIGLKQKQWLMTEALVNNPKIEVIDGKYAFKPKYNVRDKKALLRLLDQHDQRGLGGILLEDIEEALPNSQKAVKALGDQILFVNRPDKKKILFFNDKSCQFSVDEEFQKLWRSVTVDSMDEEKIEEYLKRQGISSMQESGPKKVAPIQRRKKPASQKKRRFKTHNEHLAGVLKDYSDITSSK
B2: GTF2E1 (protein, UniProt P29083 2-439, looked up)
General transcription factor …: ADPDVLTEVPAALKRLAKYVIRGFYGIEHALALDILIRNSCVKEEDMLELLKFDRKQLRSVLNNLKGDKFIKCRMRVETAADGKTTRHNYYFINYRTLVNVVKYKLDHMRRRIETDERDSTNRASFKCPVCSSTFTDLEANQLFDPMTGTFRCTFCHTEVEEDESAMPKKDARTLLARFNEQIEPIYALLRETEDVNLAYEILEPEPTEIPALKQSKDHAATTAGAASLAGGHHREAWATKGPSYEDLYTQNVVINMDDQEDLHRASLEGKSAKERPIWLRESTVQGAYGSEDMKEGGIDMDAFQEREEGHAGPDDNEEVMRALLIHEKKTSSAMAGSVGAAAPVTAANGSDSESETSESDDDSPPRPAAVAVHKREEDEEEDDEFEEVADDPIVMVAGRPFSYSEVSQRPELVAQMTPEEKEAYIAMGQRMFEDLFE
B3: TMPO (protein, UniProt P42166 2-694, looked up)
Lamina-associated polypeptide …: PEFLEDPSVLTKDKLKSELVANNVTLPAGEQRKDVYVQLYLQHLTARNRPPLPAGTNSKGPPDFSSDEEREPTPVLGSGAAAAGRSRAAVGRKATKKTDKPRQEDKDDLDVTELTNEDLLDQLVKYGVNPGPIVGTTRKLYEKKLLKLREQGTESRSSTPLPTISSSAENTRQNGSNDSDRYSDNEEGKKKEHKKVKSTRDIVPFSELGTTPSGGGFFQGISFPEISTRPPLGSTELQAAKKVHTSKGDLPREPLVATNLPGRGQLQKLASERNLFISCKSSHDRCLEKSSSSSSQPEHSAMLVSTAASPSLIKETTTGYYKDIVENICGREKSGIQPLCPERSHISDQSPLSSKRKALEESESSQLISPPLAQAIRDYVNSLLVQGGVGSLPGTSNSMPPLDVENIQKRIDQSKFQETEFLSPPRKVPRLSEKSVEERDSGSFVAFQNIPGSELMSSFAKTVVSHSLTTLGLEVAKQSQHDKIDASELSFPFHESILKVIEEEWQQVDRQLPSLACKYPVSSREATQILSVPKVDDEILGFISEATPLGGIQAASTESCNQQLDLALCRAYEAAASALQIATHTAFVAKAMQADISQAAQILSSDPSRTHQALGILSKTYDAASYICEAAFDEVKMAAHTMGNATVGRRYLWLKDCKINLASKNKLASTPFKGGTLFGGEVCKVIKKRGNKH
B4: GTF2A1 (protein, UniProt P52655 2-376, looked up)
Transcription initiation …: ANSANTNTVPKLYRSVIEDVINDVRDIFLDDGVDEQVLMELKTLWENKLMQSRAVDGFHSEEQQLLLQVQQQHQPQQQQHHHHHHHQQAQPQQTVPQQAQTQQVLIPASQQATAPQVIVPDSKLIQHMNASNMSAAATAATLALPAGVTPVQQILTNSGQLLQVVRAANGAQYIFQPQQSVVLQQQVIPQMQPGGVQAPVIQQVLAPLPGGISPQTGVIIQPQQILFTGNKTQVIPTTVAAPTPAQAQITATGQQQPQAQPAQTQAPLVLQVDGTGDTSSEEDEDEEEDYDDDEEEDKEKDGAEDGQVEEEPLNSEDDVSDEEGQELFDTENVVVCQYDKIHRSKNKWKFHLKDGIMNLNGRDYIFSKAIGDAEW
B5: TOX4 (protein, UniProt O94842 1-621, looked up)
TOX high mobility group box …: MEFPGGNDNYLTITGPSHPFLSGAETFHTPSLGDEEFEIPPISLDSDPSLAVSDVVGHFDDLADPSSSQDGSFSAQYGVQTLDMPVGMTHGLMEQGGGLLSGGLTMDLDHSIGTQYSANPPVTIDVPMTDMTSGLMGHSQLTTIDQSELSSQLGLSLGGGTILPPAQSPEDRLSTTPSPTSSLHEDGVEDFRRQLPSQKTVVVEAGKKQKAPKKRKKKDPNEPQKPVSAYALFFRDTQAAIKGQNPNATFGEVSKIVASMWDSLGEEQKQVYKRKTEAAKKEYLKALAAYKDNQECQATVETVELDPAPPSQTPSPPPMATVDPASPAPASIEPPALSPSIVVNSTLSSYVANQASSGAGGQPNITKLIITKQMLPSSITMSQGGMVTVIPATVVTSRGLQLGQTSTATIQPSQQAQIVTRSVLQAAAAAAAAASMQLPPPRLQPPPLQQMPQPPTQQQVTILQQPPPLQAMQQPPPQKVRINLQQQPPPLQIKSVPLPTLKMQTTLVPPTVESSPERPMNNSPEAHTVEAPSPETICEMITDVVPEVESPSQMDVELVSGSPVALSPQPRCVRSGCENPPIVSKDWDNEYCSNECVVKHCRDVFLAWVASRNSNTVVFVK
B6: TXNL1 (protein, UniProt O43396 2-289, looked up)
Thioredoxin-like protein 1: VGVKPVGSDPDFQPELSGAGSRLAVVKFTMRGCGPCLRIAPAFSSMSNKYPQAVFLEVDVHQCQGTAATNNISATPTFLFFRNKVRIDQYQGADAVGLEEKIKQHLENDPGSNEDTDIPKGYMDLMPFINKAGCECLNESDEHGFDNCLRKDTTFLESDCDEQLLITVAFNQPVKLYSMKFQGPDNGQGPKYVKIFINLPRSMDFEEAERSEPTQALELTEDDIKEDGIVPLRYVKFQNVNSVTIFVQSNQGEEETTRISYFTFIGTPVQATNMNDFKRVVGKKGESH
B7: GSTP1 (protein, UniProt P09211 2-210, looked up)
Glutathione S-transferase P: PPYTVVYFPVRGRCAALRMLLADQGQSWKEEVVTVETWQEGSLKASCLYGQLPKFQDGDLTLYQSNTILRHLGRTLGLYGKDQQEAALVDMVNDGVEDLRCKYISLIYTNYEAGKDDYVKALPGQLKPFETLLSQNQGGKTFIVGDQISFADYNLLDLLLIHEVLAPGCLDAFPLLSAYVGRLSARPKLKAFLASPEYVNLPINGNGKQ

Tested on: BirA*-FLAG-GATAD1 variants in Flp-In-293 cells
Test: BioID proximity labelling of full-length GATAD1 variants (SILAC)
Assay type: cell-based, human
Conditions: GATAD1 WT vs S102P, forward experiment (label swap performed, sign inverted against the H/L ratio), log2 of normalized H/L ratio, significant proteins only
Source text: The GATAD1 gene variants were ordered in a pTwist ENTR Kozak vector from Twist Bioscience. The genes were then transferred to a pDEST_pcDNA5_BirA_FLAG_Nterm vector[97] using the Gateway Clonase II system (Thermo Fisher Scientific). The resulting vectors, pEXPR_GATAD1-WT_N-term_BirA_FLAG, pEXPR_GATAD1-S102P_N-term_BirA_FLAG, pEXPR_GATAD1-S102D_N-term_BirA_FLAG, and pEXPR_GATAD1-S102A_N-term_BirA_FLAG, were used to generate tetracycline-inducible stable Flp-In^TM-293 T-REx cells. A 6-well plate was co-transfected with 0.5 µg of the pEXPR plasmid and 1 µg of the pOG44 Flp-recombinase expression vector (Thermo Fisher Scientific) using 4.5 µg of PEI (Polysciences) as a transfection reagent. The following day, the cells were trypsinized and transferred to a 10 cm dish containing DMEM supplemented with 10% FCS and 200 µg/ml hygromycin B (Invivogen) for selection. The cells were cultured for approximately 18 days with media exchange every 3 days until visible colonies were observed. After around 18 days, the colonies were trypsinized and transferred to another 10 cm dish for further characterization and experiments.
Stable Flp-In^TM-293 cell lines expressing GATAD1 variants were cultured using SILAC light (Lys0, Arg0) and SILAC heavy (Lys8, Arg10) media, as explained in the cell culture section. After full labeling, cells were split into 15 cm dishes and were treated with 1 μg/mL tetracycline for 24 h to induce the expression of GATAD1. After the induction period, cells were incubated with 50 μM biotin overnight for proximity biotinylation. As a control, wild-type GATAD1 cells, without biotin or tetracycline addition, were used. Samples were multiplexed, as shown in Supplementary Fig. 41A with both forward and reverse label swap (n = 2). Cells were then lysed in lysis buffer (50 mM Tris-HCl pH 7.5, 150 mM NaCl, 1% Triton X-100, 1 mM EDTA, 1 mM EGTA, 0.1% SDS) with freshly added protease inhibitors and 1% sodium deoxycholate. To digest the excess DNA, 1 μl of Benzonase was added, and the samples were incubated for 20 min at 37 °C. Biotinylated proteins were enriched for 3 h at 4 °C using streptavidin-sepharose beads (GE Cat# 17-5113-01). Beads were pre-washed twice with 0.01% BSA and twice with lysis buffer. After enrichment, the beads were washed one time with lysis buffer, two times with washing buffer (50 mM HEPES-KOH pH 8.0, 100 mM KCl, 10% glycerol, 2 mM EDTA, 0.1% NP-40), and six times with 50 mM ammonium bicarbonate. Beads were resuspended in ammonium bicarbonate, and an on-bead protein digest with 1 μg of trypsin followed overnight. The next day, the digested proteins were transferred to a fresh tube and were incubated with 10 mM DTT for 30 min at 37 °C and with 55 mM iodoacetamide for 20 min at 37 °C in the dark. Samples were desalted with StageTips.
Peptides were separated using reversed-phase liquid chromatography (EASY nLC II 1200, Thermo Fisher Scientific) with self-made C18 microcolumns (20 cm long) packed with ReproSil-Pur C18-AQ 1.9 μm resin (Dr. Maisch, cat# r119.aq.0001). The chromatography system was coupled online to the electrospray ion source (Proxeon) of an Orbitrap Exploris 480 mass spectrometer (Thermo Fisher Scientific). The mobile phase consisted of buffer A (0.1% formic acid and 5% acetonitrile) and buffer B (0.1% formic acid and 80% acetonitrile). Peptides were eluted using a gradient with increasing concentrations of buffer B over 110 minutes, at a flow rate of 250 nl/min. Mass spectrometry data was acquired in data-dependent mode with settings for one full scan (resolution: 60,000; m/z range: 350–1600; normalized AGC target: 300%; maximum injection time: 10 ms), followed by top 20 MS/MS scans using higher-energy collisional dissociation (resolution: 15,000; m/z range: 200–2000; normalized AGC target: 100%; maximum injection time: 120 ms; isolation width: 1.3 m/z; normalized collision energy: 28%).
Raw files were analyzed with MaxQuant, version 2.0.3.0. […]

Molecule | Log2_Ratio.H.L.normalized.WT_S102P_forward
B1 | 1.243
B2 | 1.078
B3 | 1.365
B4 | 1.42
B5 | 1.265
B6 | 1.514
B7 | -1.4183

Same assay, conditions: GATAD1 WT vs S102P, forward experiment, normalized H/L ratio, significant proteins only

Molecule | Ratio.H.L.normalized.WT_S102P_forward
B1 | 0.4226
B2 | 0.4738
B3 | 0.3882
B4 | 0.3738
B5 | 0.416
B6 | 0.3502
B7 | 2.6727

Same assay, conditions: GATAD1 WT vs S102P, reverse experiment, log2 of normalized H/L ratio, significant proteins only

Molecule | Log2_Ratio.H.L.normalized.WT_S102P_reverse
B1 | 1.178
B2 | 1.217
B3 | 1.174
B4 | 1.224
B5 | 1.044
B6 | 1.19
B7 | -1.579

Same assay, conditions: GATAD1 WT vs S102P, reverse experiment, normalized H/L ratio, significant proteins only

Molecule | Ratio.H.L.normalized.WT_S102P_reverse
B1 | 2.2619
B2 | 2.3239
B3 | 2.2568
B4 | 2.3357
B5 | 2.0619
B6 | 2.2812
B7 | 0.3348
